37 sequences from the supplement of paper PMC7877785 can be followed below.

± gives the uncertainty stated by the source.

A short description of this data set: self-splicing fitness, log relative to wild type (ln ratio); higher = more splicing; Tetrahymena group I intron in knt gene, E. coli kanamycin selection, DiMSum; sequences stand for … in CUCUCU…GGAGGGAAAAGUUAUCAGGCAUGCACCUGGUAGCUAGUCUUUAAACCAAUAGAUUGCAUCGGUUUAAAAGGCAAGACCGUCAAAUUGCGGGAAAGGGGUCAACAGCCGUUCAGUACCAAGUCUCAGGGGAAACUUUGAGAUGGCCUUGCAAAGGGUAUGGUAAUAAGCUGACGGACAUGGUCCUAACCACGCAGCCAAGUCCUAAGUCAACAGAUCUUCUGUUGAUAUGGAUGCAGUUCACAGACUAAAUGUCGGUCGGGGAAGAUGUAUUCUUCUCAUAAGAUAUAGUCGGACCUCUCCUUAAUGGGAGCUAGCGGAUGAAGUGAUGCAACACUGGAGCCGCUGGGAACUAAUUUGUAUGCGAAAGUAUAUUGAUUAGUUUUGGAGUACUCGUGGUCG
In a few lines: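 A randomised library covering all eight P1ex-region intron nucleotides was built with the intron in the knt kanamycin-resistance gene on pET-22b(+) and held in E. coli BL21(DE3). Cells were grown overnight at 37°C or 30°C on LB agar, with or without 25 μg/mL kanamycin, plus 100 μg/mL carbenicillin, 50 μM IPTG and 0.2% rhamnose, and pooled colonies were amplicon-sequenced on an Illumina HiSeq 2500. DiMSum fitness is the error-weighted combination of wild-type-normalised replicate fold changes, kanamycin versus none.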

Consider AUCUAGCAAUAUUACGCCAU, for which the “self-splicing fitness (ln)” value by setting is: (30 °C) -2.72 ± 0.2; (37 °C) -1.05 ± 0.15.
Consider AUCUAGCAAUAUUACGCCCA, for which the “self-splicing fitness (ln)” value runs as follows: (30 °C) -0.101 ± 0.29; (37 °C) -1.32 ± 0.24.
For AUCUAGCAAUAUUACGCCCG, in that order: -0.765 ± 0.38 and -0.733 ± 0.3.
In the same order, the values of AUCUAGCAAUAUUACGGAGU are -2.61 ± 0.28 and -1.52 ± 0.2.
Take AUCUAGCAAUAUUACGGCGU: the “self-splicing fitness (ln)” value is, setting by setting: (30 °C) -0.0812 ± 0.084; (37 °C) 0.429 ± 0.1.
For AUCUAGCAAUAUUACGGGAU, the “self-splicing fitness (ln)” value reads like this: (30 °C) -2.92 ± 0.2; (37 °C) -2.28 ± 0.22.
In the same order, the values of AUCUAGCAAUAUUACGGGUA are -1.97 ± 0.15 and -1.49 ± 0.12.
In the same order, the values of AUCUAGCAAUAUUACGGUAC are -2.16 ± 0.11 and -2.44 ± 0.14.
Turning to AUCUAGCAAUAUUACGUAUU, the “self-splicing fitness (ln)” value runs as follows: (30 °C) -2.56 ± 0.15; (37 °C) -2.08 ± 0.19.
In the same order, the values of AUCUAGCAAUAUUACGUCUA are -2.83 ± 0.25 and -1.59 ± 0.21.
In the same order, the values of AUCUAGCAAUAUUACGUGCC are -2.47 ± 0.23 and -1.08 ± 0.15.
Take AUCUAGCAAUAUUACGUGCG: the “self-splicing fitness (ln)” value is -1.47 ± 0.21 (30 °C) and -0.647 ± 0.17 (37 °C).
Consider AUCUAGCAAUAUUACGUGGG, for which the “self-splicing fitness (ln)” value by setting is: (30 °C) -2.22 ± 0.18; (37 °C) -2.42 ± 0.27.
For AUCUAGCAAUAUUACGUUUG, in that order: -3.39 ± 0.28 and -2.04 ± 0.37.
In the same order, the values of AUCUAGCAAUAUUACGUUUU are -2.93 ± 0.11 and -1.93 ± 0.12.
In the same order, the values of AUGAAGCAAUAUUACGAAUG are -1.25 ± 0.095 and -0.913 ± 0.1.
For AUGAAGCAAUAUUACGACAC, the “self-splicing fitness (ln)” value is 0.0739 ± 0.12 (30 °C) and -0.0401 ± 0.14 (37 °C).
For AUGAAGCAAUAUUACGACUU, in that order: -0.222 ± 0.099 and -0.0268 ± 0.12.
Consider AUGAAGCAAUAUUACGAUCC, for which the “self-splicing fitness (ln)” value is, setting by setting: (30 °C) -0.571 ± 0.11; (37 °C) 0.455 ± 0.16.
In the same order, the values of AUGAAGCAAUAUUACGCAAC are -1.28 ± 0.16 and -1.13 ± 0.16.
As for AUGAAGCAAUAUUACGCAGC, the “self-splicing fitness (ln)” value runs as follows: (30 °C) -2.75 ± 0.24; (37 °C) -0.841 ± 0.38.
In the same order, the values of AUGAAGCAAUAUUACGCAUU are -3.78 ± 0.43 and -2.52 ± 0.31.
For AUGAAGCAAUAUUACGCGUG, in that order: -0.281 ± 0.066 and -0.171 ± 0.099.
Consider AUGAAGCAAUAUUACGCUAA, for which the “self-splicing fitness (ln)” value is -1.32 ± 0.1 (30 °C) and -0.00859 ± 0.13 (37 °C).
In the same order, the values of AUGAAGCAAUAUUACGGAAU are -0.972 ± 0.074 and -0.789 ± 0.091.
Consider AUGAAGCAAUAUUACGGCCU, for which the “self-splicing fitness (ln)” value was 0.063 ± 0.094 (30 °C) and 0.456 ± 0.13 (37 °C).
For AUGAAGCAAUAUUACGGGCG, in that order: -0.667 ± 0.081 and 0.118 ± 0.1.
With AUGAAGCAAUAUUACGGGCU, the “self-splicing fitness (ln)” value (30 °C) is -1.52 ± 0.11 and the “self-splicing fitness (ln)” value (37 °C) was -0.445 ± 0.13.
Regarding AUGAAGCAAUAUUACGUCUU, the “self-splicing fitness (ln)” value (30 °C) is -2.04 ± 0.081 and the “self-splicing fitness (ln)” value (37 °C) is -1.44 ± 0.087.
For AUGAAGCAAUAUUACGUUGC, in that order: -3.64 ± 0.2 and -3.01 ± 0.26.
For the sequence AUGAAGCAAUAUUACGUUGG, the “self-splicing fitness (ln)” value runs as follows: (30 °C) -2.72 ± 0.16; (37 °C) -1.58 ± 0.2.
In the same order, the values of AUGCAGCAAUAUUACGAACC are -1.17 ± 0.17 and -0.688 ± 0.21.
In the same order, the values of AUGCAGCAAUAUUACGAACU are -0.238 ± 0.1 and 0.379 ± 0.11.
In the same order, the values of AUGCAGCAAUAUUACGAAGA are -1.8 ± 0.18 and -2.36 ± 0.27.
Turning to AUGCAGCAAUAUUACGACAG, the “self-splicing fitness (ln)” value is, setting by setting: (30 °C) -0.0726 ± 0.086; (37 °C) -0.339 ± 0.16.
For AUGCAGCAAUAUUACGACCA, in that order: -1.45 ± 0.17 and -0.579 ± 0.18.
For AUGCAGCAAUAUUACGACGG, in that order: -1.74 ± 0.11 and -1.41 ± 0.14.
